The values that follow come from publication PMC7771244.

Assay [1] addresses His9-tagged BPTF bromodomain (human). In words: AlphaScreen or HTRF.
Assay [2] concerns the target 5FW-BPTF (bromodomain of the bromodomain- and PHD finger-containing transcription factor, labelled with 5-fluorotryptophan) (human). Nature of the assay: NMR titration.
The target in assay [3] is GST-BPTF (glutathione S-transferase-tagged BPTF, not labeled with fluorine) (human). Nature of the assay: SPR. (In general: In SPR one partner is held on a chip, and binding of the other changes the refractive index at the surface.)
In assay [4] the target is 5FW-CECR2 (bromodomain of CECR2, labelled with 5-fluorotryptophan) (human). In words: NMR titration.
The target in assay [5] is 5FW-labeled BRD2(2) (second bromodomain of BRD2) (human). In words: NMR titration.
Assay [6] has as its target 5FW-labeled BRD4(2) (second bromodomain of BRD4) (human) (UniProt O60885). In words: NMR titration.

The term IC50 denotes the midpoint of a concentration-inhibition curve. Read a low IC50 as higher potency. What is called Kd is the concentration at which binding is half-saturated. A high value points to weaker binding.

“H2A.Z II K7ac,K13ac N-terminal tail peptide” registered an IC50 in assay [1] of 830 µM. Moreover, the Kd in assay [2] came out at 310 µM; in assay [3], 195 µM.
“H2A.Z I K11ac,K13ac N-terminal tail peptide” showed a Kd in assay [2] of 1440 µM.
Still for that read-out and setting: the same measure for “H2A.Z II K4ac,K7ac N-terminal tail peptide”: 660 µM; for “H2A.Z I K4ac,K15ac N-terminal tail peptide”: 630 µM; for “H2A.Z II K7ac,K11ac N-terminal tail peptide”: 780 µM.
For the substance “H2A.Z I K7ac,K13ac N-terminal tail peptide”, the Kd is 130 µM in assay [4], 520 µM in assay [2] and 680 µM in assay [5]. The fold higher affinity than for H2A.Z II K7ac,K13ac in assay [5] and in assay [6] was 2 fold in each case.
In assay [2], “H2A.Z II K4ac,K13ac N-terminal tail peptide” showed a Kd of 790 µM.
On to “H2A.Z I K4ac,K13ac N-terminal tail peptide”, for which the Kd in assay [2] is 780 µM.
Same read-out and setting: then “H2A.Z II K4ac,K15ac N-terminal tail peptide”, with 430 µM; and “H2A.Z II K11ac,K13ac N-terminal tail peptide”, with 790 µM; and “H2A.Z II K4ac,K11ac N-terminal tail peptide”, with 760 µM.
